According to the supplement of paper PMC10567573:

B1: ESRRA (parent)
chain: SLPLQDELAFAEDLVLDEEGARAA

Variants of: B1
Assay: protein stability index of a GFP-peptide fusion (GPS, HEK-293T) (PSI 1-6); higher = more stable
Conditions: c terminus: a fixed tail appended
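Note: lentivirally expressed fusions sorted by FACS into six bins by GFP to DsRed ratio, PSI derived from sequencing read proportions per bin multiplied by bin number.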

| Variant | protein stability index |
| --- | --- |
| V15L | 3.92 |
| V15H | 5.45 |
| V15A | 4.6 |
| V15K | 5.57 |
| V15M | 4.79 |
| V15S | 5.76 |
| V15N | 5.68 |
| V15G | 5.55 |
| V15F | 5.55 |
| V15T | 5.28 |
| V15C | 4.28 |
| V15D | 4.89 |
| V15W | 4.85 |
| V15P | 5.37 |
| V15I | 3.18 |
| V15Y | 5.25 |
| V15E | 5.82 |
| V15Q | 5.49 |
| V15R | 5.42 |
| E19V | 2.83 |
| E19N | 2.63 |
| E19Q | 2.56 |
| E19A | 1.86 |
| E19Y | 2.77 |

| Variant | protein stability index |
| --- | --- |
| E19T | 2.71 |
| E19F | 2.25 |
| E19K | 2.89 |
| E19I | 1.74 |
| E19C | 2.79 |
| E19H | 2.33 |
| E19G | 1.75 |
| E19P | 4.02 |
| E19S | 2.79 |
| E19W | 2.52 |
| E19D | 2.79 |
| E19R | 2.02 |
| E19L | 2.15 |
| E19M | 1.85 |
| F10D | 4.18 |
| F10H | 3.44 |
| F10N | 4.03 |
| F10K | 2.83 |
| F10C | 3.36 |
| F10A | 4.18 |
| F10T | 3.77 |
| F10W | 2.96 |
| F10Y | 3.54 |
| F10G | 4.26 |

| Variant | protein stability index |
| --- | --- |
| F10L | 2.5 |
| F10S | 3.04 |
| F10I | 3.63 |
| F10P | 5.69 |
| F10Q | 3.98 |
| F10M | 2.52 |
| F10R | 3.57 |
| F10V | 3.69 |
| F10E | 4.35 |
| R22W | 2.53 |
| R22D | 4.19 |
| R22G | 3.13 |
| R22A | 3.35 |
| R22L | 3.73 |
| R22F | 3.24 |
| R22M | 3.42 |
| R22I | 2.94 |
| R22P | 3.01 |
| R22Q | 3.45 |
| R22T | 4.45 |
| R22Y | 3.01 |
| R22S | 3.62 |
| R22V | 3.69 |
| R22E | 4.36 |

| Variant | protein stability index |
| --- | --- |
| R22N | 3.36 |
| R22H | 3.65 |
| R22K | 3.12 |
| R22C | 3.2 |
| L16F | 3.7 |
| L16V | 4.15 |
| L16M | 3 |
| L16S | 4.91 |
| L16H | 3.6 |
| L16G | 4.85 |
| L16C | 3.63 |
| L16R | 3.55 |
| L16K | 3.24 |
| L16E | 5.2 |
| L16Y | 2.44 |
| L16P | 5.75 |
| L16N | 4.59 |
| L16T | 4.72 |
| L16A | 3.83 |
| L16W | 3.23 |
| L16D | 5.66 |
| L16Q | 3.54 |
| L16I | 3.88 |
| A11C | 5.35 |

| Variant | protein stability index |
| --- | --- |
| A11H | 5.54 |
| A11P | 5.53 |
| A11I | 4.73 |
| A11K | 4.98 |
| A11Y | 4.66 |
| A11M | 5.4 |
| A11G | 5.17 |
| A11F | 4.89 |
| A11N | 5.7 |
| A11R | 5.65 |
| A11Q | 5.56 |
| A11S | 4.13 |
| A11D | 5.57 |
| A11L | 4.97 |
| A11T | 4.23 |
| A11W | 3.02 |
| A11V | 5.07 |
| A11E | 5.54 |
| D6G | 3.37 |
| D6L | 3.26 |
| D6Q | 2.91 |
| D6F | 2.73 |
| D6M | 3.77 |
| D6N | 2.92 |

| Variant | protein stability index |
| --- | --- |
| D6P | 4.04 |
| D6C | 2.42 |
| D6A | 3.27 |
| D6V | 2.5 |
| D6T | 2.89 |
| D6W | 2.78 |
| D6S | 3.25 |
| D6I | 2.26 |
| D6R | 2.65 |
| D6Y | 2.02 |
| D6E | 2.67 |
| D6H | 2.45 |
| D6K | 2.81 |
| L14G | 5.57 |
| L14Q | 3.5 |
| L14T | 5.13 |
| L14N | 5.38 |
| L14W | 4.92 |
| L14C | 3.46 |
| L14S | 4.7 |
| L14D | 5.5 |
| L14A | 4.45 |
| L14E | 4.62 |
| L14Y | 5.32 |

| Variant | protein stability index |
| --- | --- |
| L14K | 4.89 |
| L14V | 4.41 |
| L14R | 4.2 |
| L14I | 4.3 |
| L14P | 5.8 |
| L14H | 5.42 |
| L14F | 5.22 |
| L14M | 3.29 |
| G20E | 5.11 |
| G20F | 3.47 |
| G20K | 3.4 |
| G20Y | 2.44 |
| G20W | 2.67 |
| G20T | 4.05 |
| G20C | 2.6 |
| G20M | 2.51 |
| G20R | 3.38 |
| G20A | 4.48 |
| G20H | 2.9 |
| G20I | 3.08 |
| G20L | 3.04 |
| G20Q | 3.93 |
| G20D | 3.46 |
| G20P | 3.7 |

| Variant | protein stability index |
| --- | --- |
| G20V | 4 |
| G20S | 4.04 |
| G20N | 3.52 |
| E12D | 5.35 |
| E12Q | 4.71 |
| E12N | 5.53 |
| E12M | 4.88 |
| E12T | 5.41 |
| E12C | 5.04 |
| E12L | 4.42 |
| E12R | 4.36 |
| E12S | 5.26 |
| E12A | 5 |
| E12P | 5.03 |
| E12G | 4.91 |
| E12Y | 4.2 |
| E12I | 3.8 |
| E12W | 5.05 |
| E12V | 4.82 |
| E12F | 4.52 |
| E12H | 4.72 |
| E12K | 5.28 |
| E18N | 3.68 |
| E18G | 2.93 |

| Variant | protein stability index |
| --- | --- |
| E18H | 2.56 |
| E18W | 2.49 |
| E18V | 3.6 |
| E18K | 4.48 |
| E18C | 2.31 |
| E18T | 2.79 |
| E18I | 3.81 |
| E18R | 4.03 |
| E18M | 2.42 |
| E18S | 2.85 |
| E18P | 2.56 |
| E18L | 3.11 |
| E18F | 3.24 |
| E18D | 4.8 |
| E18Y | 2.99 |
| E18A | 2.7 |
| E18Q | 2.8 |
| D17E | 3.7 |
| D17N | 2.86 |
| D17C | 2.78 |
| D17V | 3.19 |
| D17A | 2.89 |
| D17M | 2.03 |
| D17W | 2.62 |

| Variant | protein stability index |
| --- | --- |
| D17S | 2.69 |
| D17K | 2.46 |
| D17T | 3.57 |
| D17I | 2.45 |
| D17F | 2.93 |
| D17G | 2.15 |
| D17H | 3.47 |
| D17Q | 3.31 |
| D17R | 3.13 |
| D17P | 4.71 |
| D17L | 2.71 |
| D17Y | 2.5 |
| Q5T | 5.34 |
| Q5W | 2.29 |
| Q5V | 3.64 |
| Q5Y | 2.96 |
| A21Q | 2.29 |
| A21E | 3.38 |
| A21P | 3.14 |
| A21R | 3.41 |
| A21V | 3.14 |
| A21M | 3.61 |
| A21C | 3.01 |
| A21W | 3.2 |

| Variant | protein stability index |
| --- | --- |
| A21Y | 2.63 |
| A21T | 3.75 |
| A21H | 3.09 |
| A21L | 3.63 |
| A21I | 2.87 |
| A21N | 2.91 |
| A21S | 4.05 |
| A21K | 2.66 |
| A21D | 3.81 |
| A21F | 3.5 |
| A21G | 2.77 |
| A9N | 3.88 |
| A9E | 4.7 |
| A9K | 2.63 |
| A9H | 3.67 |
| A9R | 3.38 |
| A9Y | 4.19 |
| A9L | 3.45 |
| A9T | 2.63 |
| A9D | 5.39 |
| A9F | 4.56 |
| A9W | 3.68 |
| A9S | 3.42 |
| A9C | 4.11 |

| Variant | protein stability index |
| --- | --- |
| A9M | 3.2 |
| A9I | 4.8 |
| A9P | 5.74 |
| A9G | 4.01 |
| A9Q | 3.61 |
| A9V | 4.88 |
| A23E | 3.66 |
| A23I | 2.87 |
| A23G | 4.15 |
| A23D | 3.39 |
| A23C | 2.98 |
| A23F | 2.89 |
| A23H | 2.95 |
| D13F | 3.31 |
| D13L | 2.68 |
| D13N | 2.79 |
| D13Q | 3.68 |
| D13M | 3.83 |
| D13V | 1.85 |
| D13H | 2.98 |
| D13W | 3.31 |
| D13P | 5.46 |
| D13C | 2.31 |
| D13S | 3.37 |

| Variant | protein stability index |
| --- | --- |
| D13I | 1.96 |
| D13T | 3.71 |
| D13G | 2.44 |
| D13Y | 2.64 |
| D13K | 3.81 |
| D13E | 2.92 |
| D13A | 3.48 |
| D13R | 3.68 |
| L8Y | 4.77 |
| L8S | 5.63 |
| L8A | 5.07 |
| L8T | 4.84 |
| L8H | 5.5 |
| L8E | 5.55 |
| L8M | 2.99 |
| L8I | 5.34 |
| L8K | 5.45 |
| L8R | 5.66 |
| L8W | 5.29 |
| L8D | 5.43 |
| L8V | 5.84 |
| L8N | 5.54 |
| L8Q | 5.29 |
| L8F | 5.13 |

| Variant | protein stability index |
| --- | --- |
| L8C | 5.51 |
| L8G | 5.2 |
| L8P | 5.3 |
| E7K | 4.84 |
| E7F | 3.92 |
| E7D | 3.63 |
| E7Y | 3.88 |
| E7I | 2.46 |
| E7N | 4.51 |
| E7G | 5.2 |
| E7L | 3.66 |
| E7T | 4.4 |
| E7Q | 3.56 |
| E7A | 2.41 |
| E7H | 3.94 |
| E7V | 2.03 |
| E7S | 3.29 |
| E7R | 4.96 |
| E7W | 4.16 |
| E7C | 3.5 |
| E7P | 5.58 |
| E7M | 3.26 |
